“Also recorded” adds a separate entry of the source.
Key:
[1] = tested on: consensus CAP site split between CAP1/CAP4 and CAP2/CAP3 duplexes; assay: CAP detection by fluorescence quenching, fluorescein/dabcyl-labeled half-site duplexes; type: binding, E. coli
Excerpt: A 38 bp DNA sequence corresponding to a consensus CAP site (Ebright, R. H., Ebright, Y. W. & Gunasakera, A. Nucleic Acids Res. 17, 10295–10305, 1989) was used as a basis for designing oligonucleotides necessary for preparing the CAP assay reagents according to the scheme illustrated in FIG. 1A. FIG. 3 illustrates the details of the design used. The following four oligonucleotides were synthesized using standard phosphoramidate automated oligonucleotide synthesis (F=dT-fluorescein; D=dT-dabcyl):
The fluorescence donor (fluorescein) and the fluorescence acceptor (dabcyl) were introduced into DNA fragments using commercially available dT-fluorescein and dT-dabcyl (Glen Research, Sterling, Va.) , wherein dT stands for deoxythymidine. […] The fractions containing the oligonucleotides were dried in a vacuum centrifuge concentrator and subsequently dissolved in 50 μl of water. […] The CAP1 oligonucleotide (SEQ ID NO:1) was hybridized with CAP4 oligonucleotide (SEQ ID NO:4) to generate the CAP1/CAP4 duplex and CAP2 oligonucleotide (SEQ ID NO:2) was hybridized with CAP3 oligonucleotide (SEQ ID NO:3) to generate the CAP2/CAP3 duplex. […] The excitation wavelength was at 490 nm and the emission was recorded from 500 to 650 nm.
FIG. 4B illustrates changes in fluorescence observed upon the addition of CAP protein. The spectrum of 50 nM of the CAP1/CAP4 duplex and 50 nM of the CAP2/CAP3 duplex was recorded (curve 1). CAP protein was added at 75 nM and after 15 minutes of incubation the spectrum was recorded (curve 2). A major quenching of fluorescence of approximately 50% of the control signal intensity was observed, which is consistent with the prediction that in the presence of CAP protein the association between the CAP1/CAP4 and CAP2/CAP3 duplexes is facilitated and that the fluorescein (fluorescent donor) present in the CAP2/CAP3 duplex is brought into close proximity to the dabcyl (fluorescent acceptor) present in the CAP1/CAP4 duplex, which results in the quenching of fluorescence emission due to FRET between the fluorescein and dabcyl.
FIG. 6 illustrates the change in fluorescence observed upon addition of increasing amounts of CAP protein in the assay. The experiments were performed under the same conditions as those for the experiment described above and in FIG. 4. Fluorescence quenching increased proportionally with the increase of CAP concentration until a saturation of the signal occurred at ˜150 nM protein.
The kinetics of CAP induced fluorescence quenching was also studied to determine the time required for completion of the assay (FIG. 7). […] At the time indicated by the arrow in FIG. 7, 100 nM CAP protein was added and monitoring of the fluorescence signal was resumed.

[2] = tested on: TRP2/TRP3 and TRP1/TRP4 duplexes; assay: two-color simultaneous detection, fluorescein-labeled TrpR constructs; type: binding; details: excitation 490 nm, one protein only
Excerpt: The compatibility of the assays described in the instant invention with a variety of fluorescence probes emitting at different wavelengths allows for the designing of variations in which two or more proteins may be detected simultaneously. Nucleic acid constructs specific for each of the proteins to be detected may be labeled with probes that emit light at different wavelengths. In this example, the reaction mixture contained nucleic acid constructs labeled with 7-diethylaminocoumarin-3-carboxylic acid for detecting CAP protein (described in EXAMPLE 2) and nucleic acid constructs labeled with fluorescein for detecting TrpR protein (described in EXAMPLE 6). Specifically, 100 nM CAP5/CAP3, 120 nM CAP1/CAP4, 100 nM TRP2/TRP3, and 120 nM TRP1/TRP4 duplexes were present in the reaction mixture.
The fluorescence spectra with the excitation at 433 nm (excitation of 7-diethylaminocoumarin-3-carbo acid, FIG. 17A) and with the excitation at 490 nm (excitation of fluorescein, FIG. 17B) were recorded in the absence of the proteins (curves 1), in the presence of CAP only (curves 2), in the presence of TrpR only (curves 3), and in the presence of both CAP and TrpR (curves 4). In the presence of only CAP there was no change in the fluorescein signal (FIG. 17B, curve 2) whereas about 60% quenching of the 7-diethylaminocoumarin-3-carbox acid signal was observed (FIG. 17A, curve 2). […]

[3] = tested on: CAP nucleic acid binding element (CAP10/CAP11 and CAP12/CAP13); assay: multiwell plate assay, immobilized CAP10/CAP11 and biotin-labeled CAP12/CAP13, streptavidin-peroxidase detection; details: for Absorbance (450 nm), + CAP: 200 μM cAMP
Method: To illustrate the extensive flexibility of the invention in terms of detection mode, an experiment following the general design depicted in FIG. 1E was performed. The following oligonucleotides, which when fully assembled contain a complete CAP nucleic acid binding element, were synthesized (X=amino-dT; B=biotin):
The CAP10 oligonucleotide was hybridized with the CAP11 oligonucleotide to generate the first nucleic acid component. The CAP 12 oligonucleotide was hybridized with the CAP13 oligonucleotide to generate the second nucleic acid component. For hybridization, appropriate oligonucleotides were (1) mixed at 10 μM concentration in 100 μl of buffer (500 mM Na2HPO4, pH 8.6, 1 mM EDTA, in the case of CAP10/CAP11 oligonucleotides; and 20 mM Tris, pH 8.0, 100 mM NaCl, 10 μM EDTA, in the case of CAP12/CAP13 oligonucleotides), (2) heated for 1 min at 95° C., and then (3) cooled to 25° C for 1 hr. The first nucleic acid component (CAP10/CAP11 half-site duplex) was covalently attached to the wells of a N-oxysuccinimide-activated 96 well plate (DNA-BIND, Corning, Acton, Mass.) by incubating 200 μl of first nucleic acid component (at 100 nM) per well in 500 mM Na2HPO4 (pH 8.6), 1 mM EDTA buffer for 1 hr followed by washing with 50 mM Tris (pH 8.0), 100 mM NaCl, 1 mM EDTA containing 0.1 mg/ml BSA. […] After incubation for 1 hr at room temperature, the wells were washed twice with the buffer followed with the addition of streptavidin-linked horseradish peroxidase (Pierce, Rockford, Ill.) at the dilution recommended by the manufacturer. After 30 min of incubation, the wells were washed twice with buffer followed with the addition of 100 μl of Turbo-TMB™ peroxidase substrate solution (Pierce, Rockford, Ill.). […] The absorbance at 450 nm of the sample and control wells were read using a standard microplate reader.

DNA = details: sequence specific binding; cited from earlier work

B1: CAP: bacterial transcription activator from E. coli which binds DNA in a sequence specific, cAMP-dependent manner (protein, UniProt P0ACJ8 2-210, looked up)
DNA-binding transcriptional …: VLGKPQTDPTLEWFLSHCHIHKYPSKSTLIHQGEKAETLYYIVKGSVAVLIKDEEGKEMILSYLNQGDFIGELGLFEEGQERSAWVRAKTACEVAEISYKKFRQLIQVNPDILMRLSAQMARRLQVTSEKVGNLAFLDVTGRIAQTLLNLAKQPDAMTHPDGMQIKITRQEIGQIVGCSRETVGRILKMLEDQNLISAHGKTIVVYGTR
protein concentration at saturation of the quenching signal ([1]; 50 nM duplexes): ~150 nM | quenching of fluorescence ([1]; 75 nM CAP, 15 minutes, 50 nM of each duplex, 200 μM cAMP): approximately 50% | time for the reaction to go to completion ([1]; 100 nM CAP, emission 520 nm): approximately 15 minutes | change in fluorescence upon addition of CAP ([1]; in the absence of cAMP): No change in fluorescence; also recorded: does not produce a change in fluorescence signal intensity | quenching of the fluorescein signal [2]: no change | increase in absorbance signal compared to controls without CAP or cAMP ([3]; 10 nM CAP12/CAP13): approximately 3 fold | Absorbance (450 nm), + CAP ([3]; 10 nM CAP12/CAP13, 250 nM CAP): 0.7308 | Absorbance (450 nm), + CAP ([3]; 20 nM CAP12/CAP13, 250 nM CAP): 0.8584 | Kd (DNA): ~0.1 nM

Source: patent US7172865B2, “Rapid and sensitive assay for the detection and quantification of coregulators of nucleic acid binding factors” (Saint Louis University, priority 2001, dated 2007)
